Source: patent publication US5451411A, “Methods and compositions for the oral delivery of therapeutic agents” (University of Washington, priority 1993, dated 1995)

Assays:
[1] = format: physicochemical
Protocol: Beads prepared in accordance with the procedure of Example 1 and containing 50 μg of ^125 I-TGF-β1 in 3.75-7.5 mg (original weight of alginate) were transferred to 15.0 mL polypropylene tubes containing 13.0 mL of PBS or of 0.1 N HCl at 37° C. In some cases, 1% BSA was added to the release media. The polypropylene tubes were gently shaken using a orbital shaker (200 rotations/minutes). At selected times, 100 μL aliquots were taken and counted for radioactivity. Care was taken so that aliquots contained no beads or bead fragments. The cumulative ^125 I-TGF-β1 released from the beads was calculated after correcting for volume changes. After 24 hours, the beads in 0.1 N HCl were transferred to PBS.
(§1) Alginate beads containing TGF-β1 and 90 kDa PAA (75:10 w/w in alginate:PAA) were prepared following the procedure of Example 1, and were acid treated for 30 minutes at 37° C. in 0.1 N HCl, as described in Example 2. The beads were then placed in PBS, pH 7.4, and the immunoreactivity of released TGF-β1 was determined by ^125 I radiolabel and ELISA, as described in Example 2. In addition, a growth inhibitory assay (GIA) was used to determine the bioactivity of the TGF-β1. The GIA measures the ability of TGF-β1 to inhibit the growth of mink lung epithelial cells (ATCC #CCL64) (T. Ikedaet al., "Human Transforming Growth Factor Type β2: Production By a Prostatic Adenocarcinoma Cell Line, Purification and Initial Characterization," Biochemistry 26:2406-2410 (1987)). The activity of the growth factor was determined by the inhibitory response of the cells to different concentrations of TGF-β1. Cell viability was based on the enzymatic cleavage by metabolically active cells of a tetrazolium salt into an orange/red formazan product. Prior to the assay cells were trypsinized and plated in a 96-well flat bottomed plate (Costar) at a concentration of 1000 cells/well. After allowing the cells to attach, samples containing the TGF-β1 and a reference standard were diluted to concentrations ranging from 1000 to 1.95 pg/ml and added to the wells. The cells were incubated for four days after which time a 100 μL solution containing 25 μg of sodium 3"-[1-(phenylamino)-carbonyl]-3,4-tetrazolium-bis(4-methoxy-6-nitro) benzene sulfonic acid hydrate (Diagnostic Chemicals, Ltd.) and 5 mM phenazine methosulfate (Aldrich) in media was added to each well. The cells were then incubated for 7 hours and the plates read on a microplate reader at an absorbance of 450 nm with a 630 nm reference filter. The specific activity of a sample was calculated relative to the reference material.

[2] = test system: mink lung epithelial cells (ATCC #CCL64); test: Growth inhibitory assay (GIA) bioactivity of released TGF-β1; format: cell-based; details: acid treated beads 75:10 w/w PAA 90 kDa; PBS pH 7.4
Protocol: as §1, with “After allowing the cells to attach, samples containing the TGF-β1 and a reference standard were diluted to concentrations ranging from 1000 to 1.95 pg/ml and added to the wells. The cells were incubated for four days after which time a 100 μL solution containing 25 μg of sodium 3"-[1-(phenylamino)-carbonyl]-3,4-tetrazolium-bis(4-methoxy-6-nitro) benzene sulfonic acid hydrate (Diagnostic Chemicals, Ltd.) and 5 mM phenazine methosulfate (Aldrich) in media was added to each well.” left out

[3] = Encapsulation efficiency of 125I-TGF-β1 in alginate beads; format: physicochemical
Protocol: Radioiodination of TGF-β1 : Radioiodination of TGF-β1 was completed in a 3.0-mL Eppendorf tube using a modified chloramine-T method (A. Tuong et al., "Site Specific Radioiodination of Recombinant Himdin," Annal. Biochem. 189:186-191 (1990)). To TGF-β1 (1 mg/1 mL) in 5 mMHCl, 10 μL of carrier-free Na^125 I (1.0 mCi) was added and mixed for 5 minutes. 100 μL of 0.1% chloramine-T was then added and, after vortexing for 60 seconds, the reaction was stopped by the addition of 100 μL of aqueous 0.1% mercaptoethanol followed by 100 μL of […]. ^125 I-TGF-β1 was diluted by adding 1.2 mL of citrate phosphate buffer (CPB), pH 2.6.
Free ^125 I was separated from ^125 I-TGF-β1 by gel filtration on a prepacked Sephadex G-25 column from Pharmacia (Uppsala, Sweden) preequilibrated with CPB. Twenty fractions of 0.5 mL each were collected, and aliquots were counted for activity using a γ-scintillation counter (Model 1185 GammaTrac; Tm Analytic; Elk Grove Village, IL). Separated ^125 I-TGF-β1 (S.A.=0.72 nCi/ng or 187 ng/μL was stored at 4° C. in 1.5 mL-Eppendofftubes. […]
Formation of Beads: 1.5 mL of the prebead mixture was drawn into a syringe equipped with a 30 G needle. […] If ^125 I-TGF-β1 was incorporated in the beads, calcium chloride was retained and counted for activity along with the 1.5 mL-Eppendoff tube to determine the % encapsulation of TGF-β1 in beads. […]

## TGF-β1: TGF-β1 (1 mg/mL in 5 mM HCl) obtained from Bristol-Myers Squibb (Seattle, WA)
[1]; 0.1 N HCl 37° C. 0.25-24 hr, then PBS pH 7.4
  Effect of acid treatment time on dissolution profiles and TGF-β1 release rates: little difference
[1]; acid treated beads 75:10 w/w PAA 90 kDa, PBS pH 7.4
  Total release of TGF-β1 (125I radiolabel): 90%
[2]
  TGF-β1 bioactive (GIA): more than 85%
[3]; prebead mixtures made in polypropylene tubes, most preparations
  Encapsulation efficiency of TGF-β1 in alginate beads: greater than 97.5%
[3]; use of glass vials
  Loss of TGF-β1: more than 98%
